Reference: article PMC3601014, “Blood-brain barrier transport of amyloid beta peptides in efflux pump knock-out animals evaluated by in vivo optical imaging” (Fluids and Barriers of the CNS, 2013)

Tests used:
[1] = tested on: mdr-1 P-glycoprotein/Abcb1; assay: Time-domain in vivo optical imaging of head ROI, Abcb1-KO mice; design: species or system mouse; settings: i.v. injection, imaged 2–8 h, data not shown
Description: (§1) The experiments with animals have been approved by the Animal Care Committee of the National Research Council of Canada - Ottawa (NRC). Wild-type (wt), mdr-1a/b (Abcb1a/b) knockout (Abcb1^KO), and Abcg2^-KO mice of FVB background were purchased from the Taconic Farms Inc (New York, USA) and maintained in the NRC Animal Facility at Ottawa. Pairs of adult wild-type mice and Abcb1^-KO and pairs of adult wild-type and Abcg2^-KO mice of the same body weight and same sex were matched for injections and imaging experiments. After initial testing of fluorescence signal with various injected doses of Cy5.5-labeld Aβ peptides, the optimal dose selected for the experiments was 100 μg of labelled peptide in 200-μL volume. […]
(§2) Briefly, each animal was positioned on a platform (dorsal side facing up) that was then placed on a heated plate (at 36°C) in the imaging system. […] The fluorescence emission at 700 nm was collected by a highly sensitive photomultiplier tube offset by 3 mm for diffuse optical topography reconstruction. […] A pulsed light source and time-resolved detection allows the system to resolve the nanosecond timescale of fluorescence emission. […] The data were thus recorded as TPSF and the images were reconstructed as fluorescence concentration maps. […] Brains were then extracted and scanned ex-vivo for fluorescence concentration

[2] = Time-domain in vivo optical imaging of head ROI, wild-type mice; design: species or system mouse; settings: i.v. injection, imaged 2–8 h; wild-type and KO mice
Description: as §1, §2

Abcg2 = molecular target: T1, Abcg2 (Mus musculus, UniProt Q7TMS5); assay: Time-domain in vivo optical imaging of head ROI, Abcg2-KO mice; settings: i.v. injection, imaged 2–8 h, 4 animals per group
T1 construct: five pairs of adult wild-type and Abcg2^-KO mice were intravenously injected via the tail vein; tissue Taconic Farms Inc; host or cells: living FVB mice (head ROI / brain, blood-brain barrier)
T1 sequence (Q7TMS5 1-657): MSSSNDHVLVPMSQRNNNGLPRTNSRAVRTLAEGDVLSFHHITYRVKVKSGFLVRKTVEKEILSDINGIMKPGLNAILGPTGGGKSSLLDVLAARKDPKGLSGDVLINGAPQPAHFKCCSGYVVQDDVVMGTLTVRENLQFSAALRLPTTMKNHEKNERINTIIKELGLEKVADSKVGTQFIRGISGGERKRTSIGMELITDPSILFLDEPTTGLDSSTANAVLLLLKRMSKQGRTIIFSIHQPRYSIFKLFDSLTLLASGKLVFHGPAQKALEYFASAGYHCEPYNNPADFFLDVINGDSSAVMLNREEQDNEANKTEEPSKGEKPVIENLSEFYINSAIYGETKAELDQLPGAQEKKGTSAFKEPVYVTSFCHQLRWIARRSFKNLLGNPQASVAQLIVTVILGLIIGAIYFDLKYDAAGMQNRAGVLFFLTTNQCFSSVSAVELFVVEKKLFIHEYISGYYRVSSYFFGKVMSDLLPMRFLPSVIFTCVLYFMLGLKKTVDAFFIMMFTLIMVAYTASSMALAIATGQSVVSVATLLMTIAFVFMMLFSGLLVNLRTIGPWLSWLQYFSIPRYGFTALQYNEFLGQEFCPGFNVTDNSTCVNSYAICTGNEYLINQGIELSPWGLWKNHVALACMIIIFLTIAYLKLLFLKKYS
Description: as §1, §2

[3] = no reference given; cited from earlier work
Description: To enable prospective in vivo optical imaging of the distribution of peripherally-injected Aβ peptides, the peptides were labeled with the near-infrared fluorescent dye Cy5.5. Since the principal aim of the present study was to monitor brain distribution of Cy5.5-labeled Aβ peptide in mice lacking major ABC transporters, the fluorescent tracer itself should not be the substrate for these transporters. To compare the permeability of BBB for Cy5.5 in wild-type, Abcb1^-KO and Abcg2^-KO animals, equal amounts of Cy5.5 tracer were intravenously injected into two pairs of wild-type and knockout mice ...

[4] = Western blot analysis of Aβ peptide solution (monomers/dimers); type: physicochemical; settings: dissolved in 10 mM NaOH, HEPES to pH 8.0, data not shown
Method: Aβ1-40 peptide used in this study for optical imaging/tracking is the most abundant Aβ peptide found in the cerebral vasculature and is more soluble than Aβ1-42 peptide. Aβ1-40 peptides (1 mg/vial) were dissolved in 250 μL of 10 mM NaOH, and then 12.5 μL of 1 M HEPES [4-(2-hydroxyethyl)-1-piperazineethanesulfonic acid] was added to bring the pH to 8.0. The peptides were divided into 2 tubes (0.5 mg/tube) and kept at −80°C. Because Aβ peptides are commonly present as beta sheet structure in solution, Western blot analyses of the mixtures were performed, and the majority of the peptides (>95%) were monomers with a small proportion of dimers (data not shown). Aβ1-40 or scrambled Aβ40-1 peptides (0.5 mg, molecular weight 4329.86D) were labeled with the near-infrared fluorescent dye Cy5.5 (molecular weight 1128.42D) using the labeling kit (Cy5.5™ Mono NHS ester) as per manufacturer’s instructions.

Abcb1 and Abcg2 = tested on: Abcb1 and Abcg2; design: method as in PMID 22391220; settings: in situ brain perfusion, Abcb1-deficient mice; cited from earlier work
[5] = in vivo, cited from earlier work
Method: Head ROI imaging protocols were initiated 2 hours after tracer injection, allowing 3–4 circulation half-lives; therefore, measured head fluorescence concentration was primarily indicative of the brain-accumulated/retained tracer, with small contribution of circulating tracer.

[6] = Aβ immunohistochemistry in brain sections (6E10 antibody); type: in vivo, mouse; settings: 100 μg i.v., brains collected 8 h post-injection; wild-type and Abcg2-KO mice; 3 animals per group
Description: The sections were also counter-stained with fluorescein-labeled lectin, Ulex europeaus agglutinin (UEA-I), as described to visualize cerebral vessels.

[7] = Serial whole-body imaging (biodistribution and systemic elimination); type: in vivo, mouse; settings: 100 μg i.v.; wild-type, Abcg2-KO and Abcb1-KO mice
Method: The animals were anesthetized with inhaled isoflurane (4% for induction and 1.5% for maintenance) and the fur was shaved from the head and dorsal side of the body. The labeled peptides (100 μg) or Cy5.5 free dye (~78 μg) were injected intravenously (i.v.) via the tail vein. The animals were imaged at 2, 4, 6, and 8 h post-injection using the time-domain optical imager eXplore Optix 670 (GE Healthcare Systems/ART Inc). The imaging protocols were described in detail previously.
Briefly, each animal was positioned on a platform (dorsal side facing up) that was then placed on a heated plate (at 36°C) in the imaging system. The whole-body scan or selected region of interest (ROI) scan (i.e., head) was performed as described. […] The fluorescence emission at 700 nm was collected by a highly sensitive photomultiplier tube offset by 3 mm for diffuse optical topography reconstruction. […] A pulsed light source and time-resolved detection allows the system to resolve the nanosecond timescale of fluorescence emission. […] The data were thus recorded as TPSF and the images were reconstructed as fluorescence concentration maps. Average fluorescence concentration data from ROI placed around the heads were subsequently analyzed using the software ART Optix Optiview (ART Inc., Montreal, QC, Canada). […] Brains were then extracted and scanned ex-vivo for fluorescence concentration […]

[8] = Aβ-Cy5.5 conjugate stability in serum; type: in vitro ADME, bovine; settings: 1:8 v/v, ~1 μg Aβ, 37°C, 0–8 h, Tricine-SDS-PAGE, optical imaging and 6E10 immunoblot
Method: To evaluate Aβ-Cy5.5 conjugate stability in serum, the labeled peptide (5-μL volume containing ~1 μg Aβ) was added to either 35 μL of (non-inactivated) FBS or 35 μL of 1 × PBS (1: 8 dilution) and incubated at 37°C for 0, 0.5, 1, 2, 4, 6, and 8 hours, respectively. The peptides (4 μL) from each of the above reactions (40 μL/reaction) were added to the loading buffer, boiled for 10 min, and resolved on a 16% Tricine-SDS-PAGE as described. The tricine-SDS-PAGE gel was scanned in the optical imager; the peptides in the gel were then transferred to a PVDF membrane for immuno-blotting. A mouse monoclonal anti-human Aβ antibody 6E10 (1:1000 dilution) and the secondary HRP-conjugated donkey anti-mouse IgG antibody (1:5000 dilution) were used for immunodetection. ECL plus detection reagents were applied to the blots and the blots were exposed to autoradiography films.

Cy5.5
Head ROI fluorescence, wild-type versus Abcb1-KO [1]: not different
Fluorescence in the head ROI after circulation time [2]: close to background
Head ROI fluorescence, wild-type versus Abcg2-KO (Abcg2): not different
Plasma half-life [3]: about 30 min
Time in which majority of the dye is cleared from the body [3]: 2 h

Aβ1-40: Synthetic human Aβ1-40 peptide purchased from Biopeptides Co.
Proportion of peptide present as monomers [4]: > 95%

COc1cc2c(cc1OC)CN(CCc1ccc(NC(=O)c3cccc4c(=O)c5cccc(OC)c5[nH]c34)cc1)CC2 [GF120918]
Effect on brain uptake of [3H]-Aβ1-40 (Abcb1 and Abcg2): strongly enhanced

[^125I]-Aβ1-40: brain-injected 125I-labeled Aβ1-40 peptide, literature
Brain clearance t1/2 [5]: 25 min

[^123I]-Aβ1-40: intracerebrally microinfused 123I-labeled Aβ1-40, literature SPECT study
Brain clearance short t1/2 (bi-phasic) ([5]; monkey): 1.1 ~ 2.7 hours

Cy5.5-labeled Aβ1-40: Synthetic human Aβ1-40 peptide labeled with the near-infrared fluorescent dye Cy5.5 (Mono NHS ester)
Immunoreactive Aβ in brain sections [6]: detected
Whole-body elimination of fluorescence [7]: almost complete disappearance of fluorescence from the body between 2 h and 4 h after injection
Stability of conjugate in PBS ([8]; 1 × PBS): no appreciable reductions of intact Aβ peptide bands
Stability of conjugate in serum ex vivo ([8]; non-inactivated FBS): mostly intact in the serum ex vivo up to 8 hours
